Reference: US7348407 (dated 2008)
Blank lines part the entries; values can stand above or below the binder they belong to.

Legend:
[1] = biological target: T1, his-tagged wild-type JMY (pET-JMY, bacterially expressed) (UniProt Q9QXM1 1-983); assay: in vitro translated STRAP derivative binding to his-tagged wild-type JMY
T1 construct: also called His-JMY; purified recombinant JMY; not shown: His tag from pET28a

[2] = biological target: T2, Flag-tagged full-length p300 (baculovirus expressed, on M2-anti-flag antibody agarose) (UniProt Q09472 2-2414, limits assumed); assay: in vitro translated STRAP derivative binding to flag-tagged wild-type p300 on anti-flag agarose
T2 construct: mature; also called flag-p300; flag-tagged wild-type p300; not shown: Flag tag
T2 sequence (Q09472 2-2414 limits assumed): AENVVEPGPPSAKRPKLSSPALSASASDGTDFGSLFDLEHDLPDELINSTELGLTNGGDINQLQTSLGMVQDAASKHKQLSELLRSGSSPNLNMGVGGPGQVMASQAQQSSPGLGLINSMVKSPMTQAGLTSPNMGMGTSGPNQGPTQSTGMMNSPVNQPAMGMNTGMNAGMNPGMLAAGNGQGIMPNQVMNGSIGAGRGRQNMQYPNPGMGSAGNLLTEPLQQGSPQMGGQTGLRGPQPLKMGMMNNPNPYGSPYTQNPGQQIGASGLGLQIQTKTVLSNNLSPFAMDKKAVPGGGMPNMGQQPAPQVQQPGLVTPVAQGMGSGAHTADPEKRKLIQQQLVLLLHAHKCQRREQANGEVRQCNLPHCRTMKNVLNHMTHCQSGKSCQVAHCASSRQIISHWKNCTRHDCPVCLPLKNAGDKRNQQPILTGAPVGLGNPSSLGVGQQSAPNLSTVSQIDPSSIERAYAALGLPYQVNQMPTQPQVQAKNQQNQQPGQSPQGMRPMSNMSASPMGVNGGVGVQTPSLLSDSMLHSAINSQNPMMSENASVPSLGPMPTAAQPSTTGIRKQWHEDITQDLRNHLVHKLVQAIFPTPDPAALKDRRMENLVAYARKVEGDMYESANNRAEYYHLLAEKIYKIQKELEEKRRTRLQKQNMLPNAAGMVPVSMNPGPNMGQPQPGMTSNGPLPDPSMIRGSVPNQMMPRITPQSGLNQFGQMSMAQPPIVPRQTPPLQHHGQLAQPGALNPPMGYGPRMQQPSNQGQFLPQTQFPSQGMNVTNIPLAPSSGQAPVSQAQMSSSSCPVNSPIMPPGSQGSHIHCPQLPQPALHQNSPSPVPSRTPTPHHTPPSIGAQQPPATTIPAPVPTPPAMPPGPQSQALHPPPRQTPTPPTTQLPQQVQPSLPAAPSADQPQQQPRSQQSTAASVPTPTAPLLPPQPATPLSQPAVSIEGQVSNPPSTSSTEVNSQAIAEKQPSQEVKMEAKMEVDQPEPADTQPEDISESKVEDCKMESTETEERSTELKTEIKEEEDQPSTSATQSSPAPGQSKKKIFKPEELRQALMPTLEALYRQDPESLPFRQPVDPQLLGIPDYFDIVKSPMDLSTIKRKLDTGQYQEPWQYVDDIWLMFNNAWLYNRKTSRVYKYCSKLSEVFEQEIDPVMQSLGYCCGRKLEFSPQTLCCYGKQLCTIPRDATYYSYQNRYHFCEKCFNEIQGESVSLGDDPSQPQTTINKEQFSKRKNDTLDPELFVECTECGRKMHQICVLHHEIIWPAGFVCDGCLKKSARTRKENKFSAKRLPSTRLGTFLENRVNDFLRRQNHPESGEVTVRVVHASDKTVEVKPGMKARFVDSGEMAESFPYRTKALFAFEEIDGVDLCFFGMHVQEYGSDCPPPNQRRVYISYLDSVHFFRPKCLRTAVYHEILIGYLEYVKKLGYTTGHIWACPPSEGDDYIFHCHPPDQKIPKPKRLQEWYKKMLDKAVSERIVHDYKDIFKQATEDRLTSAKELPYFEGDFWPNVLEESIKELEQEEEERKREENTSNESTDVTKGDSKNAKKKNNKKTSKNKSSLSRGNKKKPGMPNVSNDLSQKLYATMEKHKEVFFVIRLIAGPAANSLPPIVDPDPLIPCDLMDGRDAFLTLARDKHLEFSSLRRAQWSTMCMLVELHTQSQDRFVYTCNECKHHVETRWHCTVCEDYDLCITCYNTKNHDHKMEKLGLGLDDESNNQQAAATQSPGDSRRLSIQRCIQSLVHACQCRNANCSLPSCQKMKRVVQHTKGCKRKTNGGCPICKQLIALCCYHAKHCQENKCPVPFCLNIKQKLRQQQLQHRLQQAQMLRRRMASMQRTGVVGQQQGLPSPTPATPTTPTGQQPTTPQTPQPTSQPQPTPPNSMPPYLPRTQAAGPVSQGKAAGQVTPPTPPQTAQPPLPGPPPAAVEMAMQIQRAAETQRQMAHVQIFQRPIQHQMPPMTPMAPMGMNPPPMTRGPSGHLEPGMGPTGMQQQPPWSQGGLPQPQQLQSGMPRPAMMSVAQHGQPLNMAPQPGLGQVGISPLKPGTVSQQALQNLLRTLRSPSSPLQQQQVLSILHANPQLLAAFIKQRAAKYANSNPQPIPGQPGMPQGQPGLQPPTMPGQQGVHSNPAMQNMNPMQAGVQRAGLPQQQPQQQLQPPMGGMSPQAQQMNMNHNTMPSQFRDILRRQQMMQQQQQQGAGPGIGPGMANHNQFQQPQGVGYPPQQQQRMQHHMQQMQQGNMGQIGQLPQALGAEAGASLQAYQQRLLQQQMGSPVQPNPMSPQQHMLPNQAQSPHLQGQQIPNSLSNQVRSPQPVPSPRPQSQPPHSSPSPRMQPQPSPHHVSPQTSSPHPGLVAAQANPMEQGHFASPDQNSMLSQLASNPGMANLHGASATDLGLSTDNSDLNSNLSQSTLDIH

[3] = biological target: T1, his-tagged wild-type JMY (pET-JMY, …); assay: summary of the biochemical binding assays
[4] = biological target: T2, Flag-tagged full-length p300 …; assay: biochemical binding assay with a panel of p300 derivatives
[5] = biological target: JMY1-119 (pCMV-HA-JMY1-119, in vitro translated) (UniProt Q9QXM1 1-119); assay: in vitro translated JMY derivatives tested for binding to STRAP
[6] = biological target: T3, JMY683-983 (pCMV-HA-JMY683-983, in vitro translated) (UniProt Q9QXM1 683-983); assay: as above
T3 sequence (looked up): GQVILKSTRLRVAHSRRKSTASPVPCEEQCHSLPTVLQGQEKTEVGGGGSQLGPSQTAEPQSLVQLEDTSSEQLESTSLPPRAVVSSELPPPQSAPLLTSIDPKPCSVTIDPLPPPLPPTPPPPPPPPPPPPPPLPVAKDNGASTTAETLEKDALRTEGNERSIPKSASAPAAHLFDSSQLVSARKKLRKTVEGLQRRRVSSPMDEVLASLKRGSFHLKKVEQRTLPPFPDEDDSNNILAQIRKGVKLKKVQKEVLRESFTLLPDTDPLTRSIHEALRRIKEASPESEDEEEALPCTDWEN

[7] = biological target: p300 (pCMV-p300, expressed in transfected cells) (UniProt Q09472 1-2414); assay: co-immunoprecipitation from STRAP expressing U2OS cells treated with etoposide, against untreated cells
Chain of p300 (pCMV-p300, expressed in transfected cells) (Q09472 whole entry): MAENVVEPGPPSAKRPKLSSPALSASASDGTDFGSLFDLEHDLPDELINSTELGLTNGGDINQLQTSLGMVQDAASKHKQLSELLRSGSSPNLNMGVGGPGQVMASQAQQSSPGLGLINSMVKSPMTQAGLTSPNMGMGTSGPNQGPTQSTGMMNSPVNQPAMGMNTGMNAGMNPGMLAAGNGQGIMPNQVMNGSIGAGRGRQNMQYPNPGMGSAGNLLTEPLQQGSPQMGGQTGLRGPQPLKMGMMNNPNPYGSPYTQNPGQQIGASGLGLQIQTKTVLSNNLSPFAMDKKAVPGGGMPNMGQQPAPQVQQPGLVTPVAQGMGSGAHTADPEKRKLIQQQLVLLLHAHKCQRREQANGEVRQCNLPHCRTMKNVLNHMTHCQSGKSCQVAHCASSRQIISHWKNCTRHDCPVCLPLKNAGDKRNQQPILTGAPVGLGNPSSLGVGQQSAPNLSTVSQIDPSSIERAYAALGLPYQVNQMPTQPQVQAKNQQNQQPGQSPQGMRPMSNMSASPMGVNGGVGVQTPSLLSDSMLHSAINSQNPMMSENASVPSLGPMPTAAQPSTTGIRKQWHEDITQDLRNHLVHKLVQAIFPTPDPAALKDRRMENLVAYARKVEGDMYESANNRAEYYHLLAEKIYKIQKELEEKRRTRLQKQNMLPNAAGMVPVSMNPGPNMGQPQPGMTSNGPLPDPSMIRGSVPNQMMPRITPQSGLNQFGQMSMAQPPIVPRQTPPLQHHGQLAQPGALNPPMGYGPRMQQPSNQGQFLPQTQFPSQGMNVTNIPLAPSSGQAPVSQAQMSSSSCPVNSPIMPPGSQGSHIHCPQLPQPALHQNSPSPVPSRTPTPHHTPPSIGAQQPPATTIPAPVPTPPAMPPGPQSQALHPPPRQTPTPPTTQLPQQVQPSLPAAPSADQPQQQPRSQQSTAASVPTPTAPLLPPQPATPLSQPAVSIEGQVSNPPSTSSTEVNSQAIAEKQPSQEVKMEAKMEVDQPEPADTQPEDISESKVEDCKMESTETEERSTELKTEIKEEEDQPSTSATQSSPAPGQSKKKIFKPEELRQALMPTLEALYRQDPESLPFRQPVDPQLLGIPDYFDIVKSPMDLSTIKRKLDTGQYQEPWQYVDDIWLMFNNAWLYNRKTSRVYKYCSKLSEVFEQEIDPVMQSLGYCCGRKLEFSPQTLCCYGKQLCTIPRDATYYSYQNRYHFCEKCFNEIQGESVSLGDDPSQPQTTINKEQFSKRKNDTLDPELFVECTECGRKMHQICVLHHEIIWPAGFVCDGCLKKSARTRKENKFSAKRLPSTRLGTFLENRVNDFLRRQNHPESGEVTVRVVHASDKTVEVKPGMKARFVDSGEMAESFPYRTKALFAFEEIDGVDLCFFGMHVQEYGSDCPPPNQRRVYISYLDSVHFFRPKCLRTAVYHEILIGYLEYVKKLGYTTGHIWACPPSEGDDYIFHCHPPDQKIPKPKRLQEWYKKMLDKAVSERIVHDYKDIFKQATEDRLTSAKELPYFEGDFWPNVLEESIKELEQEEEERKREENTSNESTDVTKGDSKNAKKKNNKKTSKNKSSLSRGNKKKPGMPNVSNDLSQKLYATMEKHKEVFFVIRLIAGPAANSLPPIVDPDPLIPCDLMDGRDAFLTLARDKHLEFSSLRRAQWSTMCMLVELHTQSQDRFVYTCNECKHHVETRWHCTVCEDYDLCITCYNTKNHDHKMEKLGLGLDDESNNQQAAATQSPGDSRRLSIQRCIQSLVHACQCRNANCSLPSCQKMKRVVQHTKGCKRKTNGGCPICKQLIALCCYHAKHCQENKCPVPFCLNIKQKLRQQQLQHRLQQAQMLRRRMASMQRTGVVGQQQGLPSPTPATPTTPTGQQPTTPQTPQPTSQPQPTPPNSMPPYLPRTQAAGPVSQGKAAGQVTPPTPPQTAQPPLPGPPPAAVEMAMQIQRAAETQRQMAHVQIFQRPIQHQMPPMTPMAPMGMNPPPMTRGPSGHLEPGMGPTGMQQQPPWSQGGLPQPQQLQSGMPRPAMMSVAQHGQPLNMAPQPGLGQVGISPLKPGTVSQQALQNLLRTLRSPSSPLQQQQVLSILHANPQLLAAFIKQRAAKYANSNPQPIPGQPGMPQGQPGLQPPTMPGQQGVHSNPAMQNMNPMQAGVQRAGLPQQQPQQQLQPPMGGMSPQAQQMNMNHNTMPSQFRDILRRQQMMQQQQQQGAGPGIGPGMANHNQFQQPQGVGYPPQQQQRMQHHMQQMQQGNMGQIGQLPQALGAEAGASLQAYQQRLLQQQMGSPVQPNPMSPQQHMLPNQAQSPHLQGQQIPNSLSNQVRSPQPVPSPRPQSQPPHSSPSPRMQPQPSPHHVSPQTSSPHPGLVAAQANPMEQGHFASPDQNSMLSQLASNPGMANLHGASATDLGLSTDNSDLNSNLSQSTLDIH

[8] = biological target: T1, his-tagged wild-type JMY (pET-JMY, …); assay: binding properties of the STRAP mutant derivative
[9] = biological target: T2, Flag-tagged full-length p300 …; assay: binding properties of the STRAP mutant derivative
[10] = biological target: T1, his-tagged wild-type JMY (pET-JMY, …); assay: biochemical binding assay with STRAP derivatives (summary in FIG. 7)
[11] = biological target: T2, Flag-tagged full-length p300 …; assay: as above

- binding result [1]: binds
- binding result [2]: binds
B1: STRAP206-438 (other, not shown: small tags and cut ends)
chain: ALSAYAQAEKVDRKASSNPDLHLNRATLHKYEESYGEALEGFSQAAALDPAWPEPQQREQQLLEFLSRLTSLLESKGKTKPKKLQSMLGSLRPAHLGPCGDGRYQSASGQKMTLELKPLSTLQPGVNSGTVVLGKVVFSLTTEEKVPFTFGLVDSDGPCYAVMVYNVVQSWGVLIGDSVAIPEPNLRHHQIRHKGKDYSFSSVRVETPLLLVVNGKPQNSSSQASATVASRPQ
notes: In vitro translated

- binding result [3]: binds
- binding result [4]: binds
- binding result [5]: binds
- binding result [6]: binds
B2: STRAP (construct not stated for the experiment) (other)
chain: EAKHVLQKLQGLVDRLYCFRDSYFETHSVEDAGRKQQDVQEEMEKTLQQMEEVLGSAQVEAQALMLKGKALNVTPDYSPEAEVLLSKAVKLEPELVEAWNQLGEVYWKKGDVTSAHTCFSGALTHCKNKVSLQNLSMVLRQLQTDSGDEHSRHVMDSVRQAKLAVQMDVLDGRSWYILGNAYLSLYFNTGQNPKISQQALSAYAQAEKVDRKASSNPDLHLNRATLHKYEESYGEALEGFSQAAALDPAWPEPQQREQQLLEFLSRLTSLLESKGKTKPKKLQSMLGSLRPAHLGPCGDGRYQSASGQKMTLELKPLSTLQPGVNSGTVVLGKVVFSLTTEEKVPFTFGLVDSDGPCYAVMVYNVVQSWGVLIGDSVAIPEPNLRHHQIRHKGKDYSFSSVRVETPLLLVVNGKPQNSSSQASATVASRPQ
notes: also called 60,000 molecular weight STRAP polypeptide

- fold increase in the level of co-immunoprecipitated JMY with p300 [7]: ~10 fold
B3: JMY (pCMV-JMY, expressed in transfected cells) (other, UniProt Q9QXM1 1-983, looked up)
chain: MSFALEETLESDWVAVRPHVFDEREKHKFVFIVAWNEIEGKFAITCHNRTAQRQRSGSREQAGTPASDGSRGPGSPAARGRSEAAASATAALRSPGPRKSQAWAEGGSPRSARSLKGDPPRGPAGRGPESPLRSPARAKASPLRRSAESRDAIASATPVPPAPPVPPVSSVRVVSASGAVSEEIEVLEMVREDEAPQPLPDSEQPPSAAELESSAEECSWAGLFSFQDLRAVHQQLCSVNSQLEPCLPVFPEEPSGMWTVLFGGAPEMTEQEIDALCYQLQVYLGHGLDTCGWKILSQVLFTETDDPEEYYESLSELRQKGYEEVLQRARRRIQELLDKHKTIESMVELLDLYQMEDEAYSSLAEATTELYQYLLQPFRDMRELAMLRRQQIKISMENDYLGPRRIESLQKEDADWQRKAHMAVLSIQDLTVKYFEITAKAQKAVYDRMRADQKKFGKASWAAAAERMEKLQYAVSKETLQMMRAKEICLEQKKHALKEEMQSLQGGTEAIARLDQLESDYYDLQLQLYEVQFEILKCEELLLTAQLESIKRLISEKRDEVVYYDTYESMEAMLEKEEMAASVHAQREELQKLQQKARQLEARRGRVSAKKAYLRNKKEICIAKHHEKFQQRFQSEDEYRAHHTIQIKRDKLHDEEERKSAWVSQERQRTLDRLRTFKQRYPGQVILKSTRLRVAHSRRKSTASPVPCEEQCHSLPTVLQGQEKTEVGGGGSQLGPSQTAEPQSLVQLEDTSSEQLESTSLPPRAVVSSELPPPQSAPLLTSIDPKPCSVTIDPLPPPLPPTPPPPPPPPPPPPPPLPVAKDNGASTTAETLEKDALRTEGNERSIPKSASAPAAHLFDSSQLVSARKKLRKTVEGLQRRRVSSPMDEVLASLKRGSFHLKKVEQRTLPPFPDEDDSNNILAQIRKGVKLKKVQKEVLRESFTLLPDTDPLTRSIHEALRRIKEASPESEDEEEALPCTDWEN
notes: also called JMY co-factor; wild-type JMY

- binding result [8]: binds
- binding result [9]: no binding
B4: STRAP8-205 (other, not shown: small tags and cut ends)
chain: EAKHVLQKLQGLVDRLYCFRDSYFETHSVEDAGRKQQDVQEEMEKTLQQMEEVLGSAQVEAQALMLKGKALNVTPDYSPEAEVLLSKAVKLEPELVEAWNQLGEVYWKKGDVTSAHTCFSGALTHCKNKVSLQNLSMVLRQLQTDSGDEHSRHVMDSVRQAKLAVQMDVLDGRSWYILGNAYLSLYFNTGQNPKISQQ

- binding result [1]: binds
B5: STRAP123-205 (other, not shown: small tags and cut ends)
chain: HTCFSGALTHCKNKVSLQNLSMVLRQLQTDSGDEHSRHVMDSVRQAKLAVQMDVLDGRSWYILGNAYLSLYFNTGQNPKISQQ
notes: In vitro translated

- binding result [10]: binds
- binding result [11]: no binding
B6: STRAP8-123 (other)
chain: EAKHVLQKLQGLVDRLYCFRDSYFETHSVEDAGRKQQDVQEEMEKTLQQMEEVLGSAQVEAQALMLKGKALNVTPDYSPEAEVLLSKAVKLEPELVEAWNQLGEVYWKKGDVTSAH
notes: A pET form also exists; not shown: HA tag (pCMV-HA, in vitro translated) or His tag (pET28C, purified)
